The target in the first test is Cy5-labeled Goat anti mouse IgG (AP127S, available from CHEMICON International Inc.) (goat). Nature of the test: Cy5 fluorescence of antibody at peptide spot on AZO film after 17 h light irradiation, array scanner; reference: water instead of peptide.
In the case of WATAIAAIAAAI [synthetic peptide WAT …], the fixability, fold over Comparative Example 1 was more than 10 fold.

ISSAIAAIAAAI [synthetic peptide ISS …] gave a fixability, fold over Comparative Example 1 of more than 10 fold.

For the molecule INSAIAAIAAAI [synthetic peptide INS …], the fixability, fold over Comparative Example 1 was more than 10 fold.

As for FAAAIAAIAAAI [synthetic peptide FAA …], the fixability, fold over Comparative Example 1 was more than 10 fold.

IPTAIAAIAAAI [synthetic peptide IPT …] gave a fixability, fold over Comparative Example 1 of more than 10 fold.

IVSAIAAIAAAI [synthetic peptide IVS …]: the fixability, fold over Comparative Example 1 was more than 10 fold.

FATAIAAIAAAI [synthetic peptide FAT …] displayed a fixability, fold over Comparative Example 1 of more than 10 fold.

For PAAAIAAIAAAI [synthetic peptide PAA …], the fixability, fold over Comparative Example 1 is more than 10 fold.

IHTAIAAIAAAI [synthetic peptide IHT …] yielded a fixability, fold over Comparative Example 1 of more than 10 fold.

ITTAIAAIAAAI [synthetic peptide ITT …] returned a fixability, fold over Comparative Example 1 of more than 10 fold.

In turn, ITSAIAAIAAAI [synthetic peptide ITS …] registered a fixability, fold over Comparative Example 1 of more than 10 fold.

IAYAIAAIAAAI [synthetic peptide IAY …] showed a fixability, fold over Comparative Example 1 of more than 10 fold.

On to IQSAIAAIAAAI [synthetic peptide IQS …], for which the fixability, fold over Comparative Example 1 is more than 10 fold.

AAAAIAAIAAAI [synthetic peptide AAA …]: the fixability, fold over Comparative Example 1 is more than 10 fold.

IATAIAAIAAAI [synthetic peptide IAT …] yielded a fixability, fold over Comparative Example 1 of more than 10 fold.

IAEAIAAIAAAI [synthetic peptide IAE …] returned a fixability, fold over Comparative Example 1 of more than 10 fold.

IMTAIAAIAAAI [synthetic peptide IMT …] had a fixability, fold over Comparative Example 1 of more than 10 fold.

With QAAAIAAIAAAI [synthetic peptide QAA …], the fixability, fold over Comparative Example 1 was more than 10 fold.

With ISTAIAAIAAAI [synthetic peptide IST …], the fixability, fold over Comparative Example 1 is more than 10 fold.

In turn, IASAIAAIAAAI [synthetic peptide IAS …] registered a fixability, fold over Comparative Example 1 of more than 10 fold.

Take IAIAIAAIAAAI [synthetic peptide IAI …]: the fixability, fold over Comparative Example 1 is more than 10 fold.

Molecule VATAIAAIAAAI [synthetic peptide VAT …] yielded a fixability, fold over Comparative Example 1 of more than 10 fold.

Take LATAIAAIAAAI [synthetic peptide LAT …]: the fixability, fold over Comparative Example 1 is more than 10 fold.

In turn, PATAIAAIAAAI [synthetic peptide PAT …] registered a fixability, fold over Comparative Example 1 of more than 10 fold.

ATAAIAAIAAAI [synthetic peptide ATA …] returned a fixability, fold over Comparative Example 1 of more than 10 fold.

Molecule IAAAIAAIAAAI [synthetic peptide IAA …] had a fixability, fold over Comparative Example 1 of more than 10 fold.

AATAIAAIAAAI [synthetic peptide AAT …] came in with a fixability, fold over Comparative Example 1 of more than 10 fold.

IQTAIAAIAAAI [synthetic peptide IQT …]: the fixability, fold over Comparative Example 1 was more than 10 fold.

IITAIAAIAAAI [synthetic peptide IIT …] gave a fixability, fold over Comparative Example 1 of more than 10 fold.

VAAAIAAIAAAI [synthetic peptide VAA …] registered a fixability, fold over Comparative Example 1 of more than 10 fold.

Molecule IGSAIAAIAAAI [synthetic peptide IGS …] showed a fixability, fold over Comparative Example 1 of more than 10 fold.

LAAAIAAIAAAI [synthetic peptide LAA …] returned a fixability, fold over Comparative Example 1 of more than 10 fold.

The next test shares this target. Briefly: Rabbit anti goat IgG fixed on AZO film via synthetic peptides, probed with Cy5-labeled goat IgG, array scanner; reference: antibody directly light-fixed.
As to “anti goat IgG rabbit-IgG (A50-100A, available from Bethyl Laboratories, Inc.) (antibody)”, the immobilized antibody activity, fold over Comparative Example 2 was 3 to 30 fold.
